The results in this text go back to US20210095041A1 (SURFACE ONCOLOGY, published 2021).

For one assay, the target named is T1, recombinant rat CD39 (rat, UniProt P97687 38-478, limits assumed).
T1 sequence (looked up): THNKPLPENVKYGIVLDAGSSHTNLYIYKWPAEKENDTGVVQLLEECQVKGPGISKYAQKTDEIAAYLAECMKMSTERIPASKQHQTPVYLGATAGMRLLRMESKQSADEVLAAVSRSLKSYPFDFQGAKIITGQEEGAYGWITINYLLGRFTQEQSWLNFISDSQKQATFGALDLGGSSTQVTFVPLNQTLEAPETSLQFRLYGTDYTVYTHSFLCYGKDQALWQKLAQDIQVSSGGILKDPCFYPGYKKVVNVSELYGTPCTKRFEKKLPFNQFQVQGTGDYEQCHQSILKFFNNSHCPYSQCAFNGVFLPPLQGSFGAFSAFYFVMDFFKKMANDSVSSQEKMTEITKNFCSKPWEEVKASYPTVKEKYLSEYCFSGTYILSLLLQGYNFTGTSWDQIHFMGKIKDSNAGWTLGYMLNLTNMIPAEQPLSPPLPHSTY
Nature of the assay: BLI (Octet), clone 22 captured on AHC biosensor, recombinant rat CD39 as analyte. The method, then: (§1) In the first configuration, an Anti-Human Immunoglobulin G (IgG) Fragment Crystallizable (Fc) Capture (AHC) biosensor was used first to capture 1 μg/mL of clone 22 as the ligand onto 8 biosensors and subsequently to measure association (600 s) and dissociation (900 s) of 0 to 5 μg/mL of recombinant CD39 from either human, rat, or cynomolgus monkey as the analyte. A second configuration was required for recombinant mouse CD39 binding analysis, as the positive control antibody was a rat IgG and would not bind to the AHC biosensor. Recombinant mouse CD39 binding to clone 22 was analyzed with this second configuration to achieve a direct comparison with the positive control antibody. […] Subsequently, association (600 s) and dissociation (1200 s) of recombinant mouse CD39 (analyte) was measured at a concentration range of 0 to 5.0 μg/mL for both antibodies. […] Under both configurations, association constants (kₐ) and dissociation constants (kd) were determined and KD was calculated for each antibody where binding of the analyte was observed (clone 22 with recombinant CD39 from both human and cynomolgus monkey and Duha59 positive control antibody with recombinant mouse CD39). Kinetic binding parameters were not determined for interactions where binding was not observed (clone 22 with recombinant CD39 from both mouse and rat).

A further assay deals with T2, recombinant mouse CD39 (mouse, UniProt P55772 38-478, limits assumed).
T2 sequence (looked up): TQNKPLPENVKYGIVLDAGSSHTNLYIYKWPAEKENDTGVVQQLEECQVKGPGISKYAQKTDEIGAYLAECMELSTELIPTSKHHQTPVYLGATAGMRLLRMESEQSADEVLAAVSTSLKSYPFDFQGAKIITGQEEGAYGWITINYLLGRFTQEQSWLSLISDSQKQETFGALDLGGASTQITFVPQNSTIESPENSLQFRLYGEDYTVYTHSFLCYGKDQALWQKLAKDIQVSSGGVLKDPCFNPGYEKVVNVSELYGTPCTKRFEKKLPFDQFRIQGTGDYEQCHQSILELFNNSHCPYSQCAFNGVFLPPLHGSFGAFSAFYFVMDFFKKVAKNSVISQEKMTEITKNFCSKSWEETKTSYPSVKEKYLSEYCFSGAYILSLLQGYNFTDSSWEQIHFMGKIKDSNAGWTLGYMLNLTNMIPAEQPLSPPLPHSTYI
The experiment in a line: BLI (Octet), clone 22 amine-coupled to AR2G biosensor, recombinant mouse CD39 as analyte. As to the method: as §1

In assay [1] the target is T3, recombinant cynomolgus monkey CD39 (cynomolgus monkey, UniProt A0A7N9DGH8 38-478).
T3 sequence: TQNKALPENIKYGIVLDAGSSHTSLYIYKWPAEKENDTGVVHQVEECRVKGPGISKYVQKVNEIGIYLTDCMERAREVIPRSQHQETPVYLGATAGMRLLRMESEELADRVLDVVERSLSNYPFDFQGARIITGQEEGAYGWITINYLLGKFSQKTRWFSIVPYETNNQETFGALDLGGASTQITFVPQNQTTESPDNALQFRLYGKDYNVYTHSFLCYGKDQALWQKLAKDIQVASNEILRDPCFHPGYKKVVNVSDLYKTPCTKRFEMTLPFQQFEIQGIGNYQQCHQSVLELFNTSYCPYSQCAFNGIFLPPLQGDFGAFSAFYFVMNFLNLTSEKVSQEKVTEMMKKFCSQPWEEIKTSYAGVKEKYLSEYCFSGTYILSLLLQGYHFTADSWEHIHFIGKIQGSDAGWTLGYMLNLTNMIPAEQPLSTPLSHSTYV
Nature of the assay: BLI (Octet), clone 22 captured on AHC biosensor, recombinant cynomolgus monkey CD39 as analyte, 1:1 model. The method, then: as §1
On the technique in general: Biolayer interferometry detects binding as a change in optical thickness at a sensor tip.

Another assay concerns the target T4, recombinant human CD39 (human, UniProt P49961 38-478).
T4 construct: The clone 1-20 assays used carrier-free human CD39-His lacking transmembrane domains (R&D Systems 4397-EN-010); also called rhCD39
T4 sequence (looked up): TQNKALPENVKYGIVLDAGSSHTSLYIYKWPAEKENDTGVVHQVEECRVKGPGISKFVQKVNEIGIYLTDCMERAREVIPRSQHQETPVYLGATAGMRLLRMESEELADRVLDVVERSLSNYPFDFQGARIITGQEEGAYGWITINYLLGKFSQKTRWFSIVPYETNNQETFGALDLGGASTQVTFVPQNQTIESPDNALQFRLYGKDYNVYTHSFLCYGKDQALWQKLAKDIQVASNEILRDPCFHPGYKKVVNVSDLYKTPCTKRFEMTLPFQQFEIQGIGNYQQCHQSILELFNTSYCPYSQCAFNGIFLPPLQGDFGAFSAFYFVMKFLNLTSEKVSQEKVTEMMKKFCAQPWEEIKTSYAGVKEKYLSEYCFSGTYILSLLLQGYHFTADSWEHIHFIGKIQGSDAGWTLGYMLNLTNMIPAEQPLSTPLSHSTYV
The experiment in a line: BLI (Octet), clone 22 captured on AHC biosensor, recombinant human CD39 as analyte, 1:1 model. As to the method:
as §1

B1: clone 22 (antibody, human IgG4 S228P, kappa, V domains shown)
VH: QVQLVQSGAEVKKPGSSVKVSCKASGGTFSSEGISWVRQAPGQGLEWMGSILPIFGTANYAQKFQGRVTITADESTSTAYMELSSLRSEDTAVYYCAREAGYYRYRYFDLWGRGTLVTVSS
VL: EIVMTQSPATLSVSPGERATLSCRASQSVSSNLAWYQQKPGQAPRLLIYGASTRATGIPARFSGSGSGTEFTLTISSLQSEDFAVYYCQQHALWPLTFGGGTKVEIKR
notes: Human IgG4 with the S228P mutation and a human kappa light chain; also called anti-CD39 antibody clone 22; antibody clone number 22
For the molecule B1, the binding result in the assay with recombinant rat CD39 is recorded as “no binding (tested: 0 to 5 µg/mL recombinant rat CD39)”; with recombinant mouse CD39, “no binding (tested: 0 to 5.0 µg/mL recombinant mouse CD39)”. Further, the Kd was determined as 0.406 nM in assay [1] and 1.11 nM in the assay with recombinant human CD39.

As usually defined, the Kd is a measure of binding affinity in units of concentration.
